Test results from IntAct's records for PubMed 25910212.

B1: U4/U6 small nuclear ribonucleoprotein Prp31 (Homo sapiens), Q8WWY3 (parent)
chain: MSLADELLADLEEAAEEEEGGSYGEEEEEPAIEDVQEETQLDLSGDSVKTIAKLWDSKMFAEIMMKIEEYISKQAKASEVMGPVEAAPEYRVIVDANNLTVEIENELNIIHKFIRDKYSKRFPELESLVPNALDYIRTVKELGNSLDKCKNNENLQQILTNATIMVVSVTASTTQGQQLSEEELERLEEACDMALELNASKHRIYEYVESRMSFIAPNLSIIIGASTAAKIMGVAGGLTNLSKMPACNIMLLGAQRKTLSGFSSTSVLPHTGYIYHSDIVQSLPPDLRRKAARLVAAKCTLAARVDSFHESTEGKVGYELKDEIERKFDKWQEPPPVKQVKPLPAPLDGQRKKRGGRRYRKMKERLGLTEIRKQANRMSFGEIEEDAYQEDLGFSLGHLGKSGSGRVRQTQVNEATKARISKTLQRTLQKQSVVYGGKSTIRDRSSGTASSVAFTPLQGLEIVNPQAAEKKVAEANQKYFSSMAEFLKVKGEKSGLMST
partner: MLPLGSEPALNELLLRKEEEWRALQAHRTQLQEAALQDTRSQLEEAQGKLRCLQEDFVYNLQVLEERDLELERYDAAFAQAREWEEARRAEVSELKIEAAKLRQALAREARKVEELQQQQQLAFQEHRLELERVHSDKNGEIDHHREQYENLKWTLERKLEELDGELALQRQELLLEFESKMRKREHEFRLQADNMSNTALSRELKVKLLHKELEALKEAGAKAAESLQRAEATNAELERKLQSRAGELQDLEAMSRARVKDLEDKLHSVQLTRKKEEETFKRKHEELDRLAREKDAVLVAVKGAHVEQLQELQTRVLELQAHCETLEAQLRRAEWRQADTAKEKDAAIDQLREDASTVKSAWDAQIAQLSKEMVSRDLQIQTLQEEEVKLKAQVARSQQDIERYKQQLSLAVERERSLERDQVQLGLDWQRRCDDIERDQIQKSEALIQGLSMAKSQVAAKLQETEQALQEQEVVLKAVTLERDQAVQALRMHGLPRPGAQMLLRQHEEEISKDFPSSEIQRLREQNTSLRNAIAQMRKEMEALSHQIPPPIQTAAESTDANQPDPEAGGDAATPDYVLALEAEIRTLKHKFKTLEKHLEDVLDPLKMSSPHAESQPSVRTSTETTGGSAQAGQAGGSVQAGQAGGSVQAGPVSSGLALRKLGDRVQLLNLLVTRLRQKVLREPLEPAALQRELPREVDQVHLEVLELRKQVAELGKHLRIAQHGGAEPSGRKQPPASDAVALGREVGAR
B2: Emerin (Homo sapiens), P50402 (parent)
chain: MDNYADLSDTELTTLLRRYNIPHGPVVGSTRRLYEKKIFEYETQRRRLSPPSSSAASSYSFSDLNSTRGDADMYDLPKKEDALLYQSKGYNDDYYEESYFTTRTYGEPESAGPSRAVRQSVTSFPDADAFHHQVHDDDLLSSSEEECKDRERPMYGRDSAYQSITHYRPVSASRSSLDLSYYPTSSSTSFMSSSSSSSSWLTRRAIRPENRAPGAGLGQDRQVPLWGQLLLFLVFVIVLFFIYHFMQAEEGNPF
partner: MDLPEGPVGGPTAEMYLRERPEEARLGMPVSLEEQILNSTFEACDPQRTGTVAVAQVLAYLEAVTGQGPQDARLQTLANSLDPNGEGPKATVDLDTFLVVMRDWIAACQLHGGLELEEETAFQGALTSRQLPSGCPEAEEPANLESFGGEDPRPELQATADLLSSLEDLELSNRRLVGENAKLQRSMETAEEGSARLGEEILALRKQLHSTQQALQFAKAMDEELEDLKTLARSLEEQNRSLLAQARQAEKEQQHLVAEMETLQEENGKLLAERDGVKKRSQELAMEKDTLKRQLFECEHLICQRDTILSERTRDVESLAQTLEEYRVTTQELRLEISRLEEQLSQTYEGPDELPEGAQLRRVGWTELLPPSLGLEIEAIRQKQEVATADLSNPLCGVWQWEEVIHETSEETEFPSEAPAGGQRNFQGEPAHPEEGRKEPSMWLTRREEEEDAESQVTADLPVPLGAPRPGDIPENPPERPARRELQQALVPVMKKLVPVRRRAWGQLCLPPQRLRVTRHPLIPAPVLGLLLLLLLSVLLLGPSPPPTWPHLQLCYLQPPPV
B3: Proton-coupled zinc antiporter SLC30A2 (Homo sapiens), Q9BRI3 (parent)
chain: MEAKEKQHLLDARPAIRSYTGSLWQEGAGWIPLPRPGLDLQAIELAAQSNHHCHAQKGPDSHCDPKKGKAQRQLYVASAICLLFMIGEVVGGYLAHSLAVMTDAAHLLTDFASMLISLFSLWMSSRPATKTMNFGWQRAEILGALVSVLSIWVVTGVLVYLAVERLISGDYEIDGGTMLITSGCAVAVNIIMGLTLHQSGHGHSHGTTNQQEENPSVRAAFIHVIGDFMQSMGVLVAAYILYFKPEYKYVDPICTFVFSILVLGTTLTILRDVILVLMEGTPKGVDFTAVRDLLLSVEGVEALHSLHIWALTVAQPVLSVHIAIAQNTDAQAVLKTASSRLQGKFHFHTVTIQIEDYSEDMKDCQACQGPSD
partner: B2 partner

Variants of: B1
Settings: with CCDC57, Q2TAC2-2

| effect of a mutation on the interaction | Variant |
| --- | --- |
| with no effect | MSLADELLADLEEAAEEEEGGSYGEEEEEPAIEDVQEETQLDLSGDSVKTIAKLWDSKMFAEIMMKIEEYISKQAKASEVMGPVEAAPEYRVIVDANNLTVEIENEVNIIHKFIRDKYSKRFPELESLVPNALDYIRTVKELGNSLDKCKNNENLQQILTNATIMVVSVTASTTQGQQLSEEELERLEEACDMALELNASKHRIYEYVESRMSFIAPNLSIIIGASTAAKIMGVAGGLTNLSKMPACNIMLLGAQRKTLSGFSSTSVLPHTGYIYHSDIVQSLPPDLRRKAARLVAAKCTLAARVDSFHESTEGKVGYELKDEIERKFDKWQEPPPVKQVKPLPAPLDGQRKKRGGRRYRKMKERLGLTEIRKQANRMSFGEIEEDAYQEDLGFSLGHLGKSGSGRVRQTQVNEATKARISKTLQRTLQKQSVVYGGKSTIRDRSSGTASSVAFTPLQGLEIVNPQAAEKKVAEANQKYFSSMAEFLKVKGEKSGLMST [L107V] |

Variants of: B2
Settings: with kash5_human KASH5, Q8N6L0

| effect of a mutation on the interaction | Variant |
| --- | --- |
| with no effect | MDNYADLSDTELTTLLRRYNIPHGPVVGSTRRLYEKKIFEYETQRRRLSPPSSSAASSYSFSDLNSTRGDAVMYDLPKKEDALLYQSKGYNDDYYEESYFTTRTYGEPESAGPSRAVRQSVTSFPDADAFHHQVHDDDLLSSSEEECKDRERPMYGRDSAYQSITHYRPVSASRSSLDLSYYPTSSSTSFMSSSSSSSSWLTRRAIRPENRAPGAGLGQDRQVPLWGQLLLFLVFVIVLFFIYHFMQAEEGNPF [D72V] |
| with no effect | MDNYADLSDTELTTLLRRYNIPHGPVVGSTRRLYEKKIFEYETQRRRLSPPSSFAASSYSFSDLNSTRGDADMYDLPKKEDALLYQSKGYNDDYYEESYFTTRTYGEPESAGPSRAVRQSVTSFPDADAFHHQVHDDDLLSSSEEECKDRERPMYGRDSAYQSITHYRPVSASRSSLDLSYYPTSSSTSFMSSSSSSSSWLTRRAIRPENRAPGAGLGQDRQVPLWGQLLLFLVFVIVLFFIYHFMQAEEGNPF [S54F] |
| with no effect | MDNYADLSDTELTTLLRRYNIPHGPVVGSTRRLYEKKIFEYETQRRRLSPPSSSAASSYSFSDLNSTRGDADMYDLPKKEDALLYQSKGYNDDYYEESYFTTRTYGEPESAGPSRAVRQSVTSFPDADAFHHQVHDDDLLSSSEEECKDRERPMYGRDSAYQSITHYRPVSASRSSLDLSYYHTSSSTSFMSSSSSSSSWLTRRAIRPENRAPGAGLGQDRQVPLWGQLLLFLVFVIVLFFIYHFMQAEEGNPF [P183H] |
| with no effect | MDNYADLSDTELTTLLRRYNIPHGPVVGSTRRLYEKKIFEYETQRRRLSPPSSSAASSYSFSDLNSTRGDADMYDLPKKEDALLYQSKGYNDDYYEESYFTTRTYGEPESAGPSRAVRQSVTSFPDADAFHHQVHDDDLLSSSEEECKDRERPMYGRDSAYQSITHYRPVSASRSSLDLSYYTTSSSTSFMSSSSSSSSWLTRRAIRPENRAPGAGLGQDRQVPLWGQLLLFLVFVIVLFFIYHFMQAEEGNPF [P183T] |

Variants of: B3
Settings: with kash5_human KASH5, Q8N6L0

| effect of a mutation on the interaction | Variant |
| --- | --- |
| with no effect | MEAKEKQHLLDARPAIRSYTGSLWQEGAGWIPLPRPGLDLQAIELAAQSNHHCRAQKGPDSHCDPKKGKAQRQLYVASAICLLFMIGEVVGGYLAHSLAVMTDAAHLLTDFASMLISLFSLWMSSRPATKTMNFGWQRAEILGALVSVLSIWVVTGVLVYLAVERLISGDYEIDGGTMLITSGCAVAVNIIMGLTLHQSGHGHSHGTTNQQEENPSVRAAFIHVIGDFMQSMGVLVAAYILYFKPEYKYVDPICTFVFSILVLGTTLTILRDVILVLMEGTPKGVDFTAVRDLLLSVEGVEALHSLHIWALTVAQPVLSVHIAIAQNTDAQAVLKTASSRLQGKFHFHTVTIQIEDYSEDMKDCQACQGPSD [H54R] |
